First the molecules themselves.
B1: SPOPL (parent)
chain: YTGRAPNLDKMADNLLAAADKYAL
B2: CDKL4 (parent)
chain: AVKKFVESEDDPVVKKIALREIRM
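Also: lentivirally expressed fusions sorted by FACS into six bins by GFP to DsRed ratio, PSI derived from sequencing read proportions per bin multiplied by bin number.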

In one data set the parent is B1. Nature of the data set: protein stability index of a GFP-peptide fusion (GPS, HEK-293T) (PSI 1-6); higher = more stable. As to conditions: c terminus: a fixed tail appended.
On to YTGRAWNLDKMADNLLAAADKYAL [P6W], for which the protein stability index came out at 5.

Consider YTGRAYNLDKMADNLLAAADKYAL [P6Y], for which the protein stability index is 1.75.

Turning to YTGRASNLDKMADNLLAAADKYAL [P6S], the protein stability index turned out to be 2.16.

For YTGRACNLDKMADNLLAAADKYAL [P6C], the protein stability index worked out at 1.65.

As to YTGRAVNLDKMADNLLAAADKYAL [P6V], the protein stability index worked out at 2.11.

As for YTGRANNLDKMADNLLAAADKYAL [P6N], the protein stability index was 2.49.

On to YTGRAENLDKMADNLLAAADKYAL [P6E], for which the protein stability index is 2.82.

Consider YTGRARNLDKMADNLLAAADKYAL [P6R], for which the protein stability index turned out to be 2.44.

On to YTGRAINLDKMADNLLAAADKYAL [P6I], for which the protein stability index worked out at 1.85.

Take YTGRATNLDKMADNLLAAADKYAL [P6T]: the protein stability index amounted to 2.16.

For YTGRAMNLDKMADNLLAAADKYAL [P6M], the protein stability index is 2.2.

Take YTGRAKNLDKMADNLLAAADKYAL [P6K]: the protein stability index stood at 1.43.

In the case of YTGRAPNLMKMADNLLAAADKYAL [D9M], the protein stability index turned out to be 2.23.

Take YTGRAPNLIKMADNLLAAADKYAL [D9I]: the protein stability index was found to be 1.37.

Turning to YTGRAPNLAKMADNLLAAADKYAL [D9A], the protein stability index was 2.12.

Turning to YTGRAPNLHKMADNLLAAADKYAL [D9H], the protein stability index amounted to 2.17.

For YTGRAPNLCKMADNLLAAADKYAL [D9C], the protein stability index was found to be 1.99.

Take YTGRAPNLKKMADNLLAAADKYAL [D9K]: the protein stability index turned out to be 2.34.

Consider YTGRAPNLSKMADNLLAAADKYAL [D9S], for which the protein stability index turned out to be 1.78.

With YTGRAPNLRKMADNLLAAADKYAL [D9R], the protein stability index was found to be 1.2.

Take YTGRAPNLPKMADNLLAAADKYAL [D9P]: the protein stability index was found to be 2.36.

On to YTGRAPNLQKMADNLLAAADKYAL [D9Q], for which the protein stability index was 2.84.

Consider YTGRAPNLNKMADNLLAAADKYAL [D9N], for which the protein stability index came to 1.65.

As for YTGRAPNLFKMADNLLAAADKYAL [D9F], the protein stability index is 3.79.

For YTGRAPNLEKMADNLLAAADKYAL [D9E], the protein stability index worked out at 2.24.

Turning to YTGPAPNLDKMADNLLAAADKYAL [R4P], the protein stability index stood at 2.75.

Regarding YTGSAPNLDKMADNLLAAADKYAL [R4S], the protein stability index was found to be 2.77.

As to YTGFAPNLDKMADNLLAAADKYAL [R4F], the protein stability index stood at 2.12.

Turning to YTGNAPNLDKMADNLLAAADKYAL [R4N], the protein stability index was determined as 2.09.

Regarding YTGKAPNLDKMADNLLAAADKYAL [R4K], the protein stability index amounted to 2.41.

As to YTGLAPNLDKMADNLLAAADKYAL [R4L], the protein stability index stood at 3.6.

Take YTGHAPNLDKMADNLLAAADKYAL [R4H]: the protein stability index was determined as 2.04.

For the variant YTGCAPNLDKMADNLLAAADKYAL [R4C], the protein stability index amounted to 2.31.

Regarding YTGEAPNLDKMADNLLAAADKYAL [R4E], the protein stability index amounted to 3.04.

Regarding YTGDAPNLDKMADNLLAAADKYAL [R4D], the protein stability index is 3.

Regarding YTGYAPNLDKMADNLLAAADKYAL [R4Y], the protein stability index was 2.02.

For YTGTAPNLDKMADNLLAAADKYAL [R4T], the protein stability index amounted to 1.84.

For YTGVAPNLDKMADNLLAAADKYAL [R4V], the protein stability index was found to be 1.88.

In the case of YTGIAPNLDKMADNLLAAADKYAL [R4I], the protein stability index was determined as 1.96.

On to YTGAAPNLDKMADNLLAAADKYAL [R4A], for which the protein stability index amounted to 2.38.

Consider YTGMAPNLDKMADNLLAAADKYAL [R4M], for which the protein stability index came to 1.69.

YTGGAPNLDKMADNLLAAADKYAL [R4G]: the protein stability index stood at 2.74.

For YTGQAPNLDKMADNLLAAADKYAL [R4Q], the protein stability index was determined as 2.86.

In the case of YTGRAPNDDKMADNLLAAADKYAL [L8D], the protein stability index stood at 3.

As to YTGRAPNPDKMADNLLAAADKYAL [L8P], the protein stability index came to 3.29.

With YTGRAPNYDKMADNLLAAADKYAL [L8Y], the protein stability index amounted to 1.36.

As to YTGRAPNFDKMADNLLAAADKYAL [L8F], the protein stability index is 1.9.

Consider YTGRAPNIDKMADNLLAAADKYAL [L8I], for which the protein stability index was determined as 1.85.

Take YTGRAPNKDKMADNLLAAADKYAL [L8K]: the protein stability index was determined as 2.16.

With YTGRAPNQDKMADNLLAAADKYAL [L8Q], the protein stability index turned out to be 2.58.

For YTGRAPNGDKMADNLLAAADKYAL [L8G], the protein stability index was 2.81.

Consider YTGRAPNVDKMADNLLAAADKYAL [L8V], for which the protein stability index was found to be 3.88.

Consider YTGRAPNSDKMADNLLAAADKYAL [L8S], for which the protein stability index stood at 1.83.

Consider YTGRAPNTDKMADNLLAAADKYAL [L8T], for which the protein stability index was found to be 2.55.

As for YTGRAPNNDKMADNLLAAADKYAL [L8N], the protein stability index is 2.94.

For the variant YTGRAPNHDKMADNLLAAADKYAL [L8H], the protein stability index came out at 2.38.

For the variant YTGRAPNRDKMADNLLAAADKYAL [L8R], the protein stability index worked out at 2.93.

For YTGRAPNMDKMADNLLAAADKYAL [L8M], the protein stability index is 1.8.

As for YTGRAPNCDKMADNLLAAADKYAL [L8C], the protein stability index turned out to be 2.28.

Another data set covers variants of B2. The description is as above. The note with it: c terminus: a fixed tail appended.
Consider AVKKFVESEDDPVHKKIALREIRM [V14H], for which the protein stability index turned out to be 3.38.

In the case of AVKKFVESEDDPVRKKIALREIRM [V14R], the protein stability index is 3.44.

On to AVKKFVEPEDDPVVKKIALREIRM [S8P], for which the protein stability index turned out to be 2.7.

AVKKFVESEQDPVVKKIALREIRM [D10Q]: the protein stability index turned out to be 2.8.

Turning to AVKKFVESEADPVVKKIALREIRM [D10A], the protein stability index is 2.58.

On to AVKKFVESETDPVVKKIALREIRM [D10T], for which the protein stability index turned out to be 2.78.

As to AVKKFVESEDDPVVKKIALREIRN [M24N], the protein stability index came out at 2.95.

In the case of AVKKFVESIDDPVVKKIALREIRM [E9I], the protein stability index amounted to 2.51.

As for AVKKFVESMDDPVVKKIALREIRM [E9M], the protein stability index worked out at 1.76.

Regarding AVKKFVESPDDPVVKKIALREIRM [E9P], the protein stability index stood at 2.34.

As for AVKKFVESKDDPVVKKIALREIRM [E9K], the protein stability index came to 2.69.

In the case of AVKKFVESVDDPVVKKIALREIRM [E9V], the protein stability index was 2.48.

AVKKFVESEDDPVVKKIALWEIRM [R20W]: the protein stability index is 2.43.

Regarding AVKKFVESEDDPVVKKIALVEIRM [R20V], the protein stability index stood at 1.46.

For the variant AVKKFVESEDDPVVKKIALLEIRM [R20L], the protein stability index was 2.44.

As for AVKKFVESEDDPVVKKIALRFIRM [E21F], the protein stability index was found to be 1.7.

Regarding AVKKFVESEDDPVVKKIALREQRM [I22Q], the protein stability index turned out to be 3.62.

As to AVKKFVESEDDPVVKKIALREGRM [I22G], the protein stability index was found to be 3.66.

In the case of AVKKFVESEDDPVVKKIALREFRM [I22F], the protein stability index stood at 2.18.

As to AVKKFVESEDWPVVKKIALREIRM [D11W], the protein stability index worked out at 3.34.

In the case of AVKKFVESEDNPVVKKIALREIRM [D11N], the protein stability index was determined as 3.19.

With SVKKFVESEDDPVVKKIALREIRM [A1S], the protein stability index turned out to be 3.94.

Regarding AVKKDVESEDDPVVKKIALREIRM [F5D], the protein stability index amounted to 3.75.

Regarding AVKKWVESEDDPVVKKIALREIRM [F5W], the protein stability index amounted to 2.47.

On to AIKKFVESEDDPVVKKIALREIRM [V2I], for which the protein stability index was determined as 2.31.

Turning to ASKKFVESEDDPVVKKIALREIRM [V2S], the protein stability index turned out to be 3.51.

For the variant ACKKFVESEDDPVVKKIALREIRM [V2C], the protein stability index came out at 2.85.

Regarding AVKKFVESEDDMVVKKIALREIRM [P12M], the protein stability index came to 1.95.

For the variant AVKKFVESEDDPVVKKTALREIRM [I17T], the protein stability index was 4.48.

On to AVKKFVESEDDPVVKKVALREIRM [I17V], for which the protein stability index stood at 3.22.

Consider AVKKFVESEDDPVVKKHALREIRM [I17H], for which the protein stability index came out at 3.33.

As for AVVKFVESEDDPVVKKIALREIRM [K3V], the protein stability index amounted to 1.95.

On to AVKKFVESEDDPVVKIIALREIRM [K16I], for which the protein stability index was determined as 2.19.

As to AVKKFVESEDDPVVKFIALREIRM [K16F], the protein stability index stood at 2.77.

Consider AVKKFAESEDDPVVKKIALREIRM [V6A], for which the protein stability index amounted to 3.07.

The record behind these values is the supplement of paper PMC10567573.
